# Results published in patent US20240108745A1 (MEDILINK THERAPEUTICS SUZHOU, published 2024).
# T1: monkey Her3-his (monkey)
# T1 chain: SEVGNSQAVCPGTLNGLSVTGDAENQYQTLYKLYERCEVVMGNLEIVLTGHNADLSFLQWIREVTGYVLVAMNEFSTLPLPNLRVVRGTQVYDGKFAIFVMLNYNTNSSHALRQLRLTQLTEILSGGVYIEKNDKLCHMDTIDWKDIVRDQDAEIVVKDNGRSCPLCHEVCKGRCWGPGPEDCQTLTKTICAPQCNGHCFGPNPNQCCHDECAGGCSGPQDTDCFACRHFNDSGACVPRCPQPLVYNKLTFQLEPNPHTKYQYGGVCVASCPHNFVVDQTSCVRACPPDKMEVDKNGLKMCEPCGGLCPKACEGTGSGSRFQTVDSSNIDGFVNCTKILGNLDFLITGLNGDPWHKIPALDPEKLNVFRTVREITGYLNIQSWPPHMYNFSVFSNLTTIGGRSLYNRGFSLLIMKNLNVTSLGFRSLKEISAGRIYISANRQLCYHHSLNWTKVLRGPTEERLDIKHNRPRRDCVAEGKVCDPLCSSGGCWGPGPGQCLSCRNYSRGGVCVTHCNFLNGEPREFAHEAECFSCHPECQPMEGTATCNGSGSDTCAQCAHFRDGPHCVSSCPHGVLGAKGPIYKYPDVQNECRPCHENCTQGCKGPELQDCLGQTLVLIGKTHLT
# B1: anti-Her3 antibody 202-2-1 (antibody, human IgG1, kappa, V domains shown)
# VH: EVQLVESGGGVVQPGRSLRLSCAASGFTFSTYGMHWVRQAPGKGLEWVAVIWYDVSHKYYADSVKGRFTISRDNSKNTLSLQMNSLRAEDTAVYYCARDWGDPDAFDIWGQGTMVTVSS
# VL: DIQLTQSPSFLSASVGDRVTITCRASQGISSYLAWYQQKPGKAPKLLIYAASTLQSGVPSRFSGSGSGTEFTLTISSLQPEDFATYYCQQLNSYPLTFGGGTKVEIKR
# notes: expressed in HEK293F; also called Her3mAb
# Tests used:
# [1] = biological target: T2, rat Her3-his (rat, UniProt Q62799 20-643); assay: ELISA, rat Her3-his coated at 1 µg/mL, anti-human Fc-HRP
# T2 construct: also called rat Her3 protein
# T2 sequence (Q62799 other isoform, or with tags, fused parts or gaps): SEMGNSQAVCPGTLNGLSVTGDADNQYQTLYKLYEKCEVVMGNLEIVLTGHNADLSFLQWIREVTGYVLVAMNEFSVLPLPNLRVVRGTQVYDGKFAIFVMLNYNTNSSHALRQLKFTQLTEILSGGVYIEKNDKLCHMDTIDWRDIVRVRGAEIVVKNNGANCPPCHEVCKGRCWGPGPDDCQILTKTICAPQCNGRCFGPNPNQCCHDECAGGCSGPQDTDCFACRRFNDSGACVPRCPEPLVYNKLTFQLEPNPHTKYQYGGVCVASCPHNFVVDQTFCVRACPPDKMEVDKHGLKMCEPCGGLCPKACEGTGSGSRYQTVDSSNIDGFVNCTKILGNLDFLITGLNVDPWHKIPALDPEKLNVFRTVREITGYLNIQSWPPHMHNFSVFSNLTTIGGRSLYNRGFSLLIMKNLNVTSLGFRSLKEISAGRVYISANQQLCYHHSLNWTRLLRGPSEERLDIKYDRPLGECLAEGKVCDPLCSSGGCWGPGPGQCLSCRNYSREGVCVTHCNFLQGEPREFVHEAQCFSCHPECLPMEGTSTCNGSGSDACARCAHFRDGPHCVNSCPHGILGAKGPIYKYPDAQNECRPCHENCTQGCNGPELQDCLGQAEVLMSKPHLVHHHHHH
# Procedure: (§1) The affinity of anti-Her3 antibody to Her3 protein was detected by ELISA experimental method. Specific experimental procedures: human Her3-his, monkey Her3-his protein and rat Her3-his was diluted with carbonate buffer with a pH value of 9.6 to a final concentration of 1 μg/mL, and then added to 96-well enzyme labelling wells at 100 μL/well, and coated overnight at 4° C.; the coating solution was discarded, and the plate was washed once with PBST, then 100 μL of PBS (containing 2% BSA) was added to each well, and blocked at 37° C. for 1 h; then, 100 μL of anti-Her3 antibody diluted with PBS (containing 2% BSA) ((starting at 1 μg, 3 folds serial dilution, in duplicate wells) was added to each well, and then incubated at 37° C. for 2 h; the plate was washed three times with PBST, and horseradish peroxidase-labeled anti-human Fc antibody (diluted at 1:10000 with PBS) was added at 100 μL/well, then reacted for 1 h at 37° C. The plate was washed 5 times with PBST. TMB chromogenic solution was added at 100 μL/well and incubated at 37° C. for 7 min to develop color, and then the stop solution was added at 50 μL/well to terminate the reaction.
# [2] = biological target: T1, monkey Her3-his; assay: ELISA, antigen coated at 1 µg/mL, antibody titrated, anti-human Fc-HRP
# Procedure: as §1
# [3] = biological target: T3, human Her3-his (human, UniProt P21860 20-643); assay: as above
# T3 construct: range 1-643; also called human Her3 protein
# Procedure: as §1
binder,measurement,setting,value
B1,binding result,[1],no binding
same,EC50,[2],15.9 pM
same,EC50,[3],21 pM
